Data as given in US11957716B2 (Immatics Biotechnologies GmbH, priority 2021, dated 2024).

Columns and labels:
HLA-A*01:01 = HLA-A*01:01 (Homo sapiens, UniProt P04439, A114D/A174V/A182V/D101N/D185E/E176A/E190D/L180R/Q94H/R68K/S129P/T187R/V100A/V91M/W191G); experiment: MHC binding assay, UV-ligand exchange ELISA; conditions: peptide exchange yield, binding to HLA-A*01:01
[1] = system: HLA-A*01:01, HLA-A*02:01, HLA-A*03:01, HLA-A*24:02, HLA-B*07:02, HLA-B*08:01 and HLA-B*44:02; experiment: HLA alleles the peptides bind to (Table 7); format: binding, human; conditions: allotype from the group HLA-A*01:01, HLA-A*02:01, HLA-A*03:01, HLA-A*24:02, HLA-B*07:02, HLA-B*08:01, HLA-B*44:02
Text: However, due to similarities in binding pattern such as the relevant anchoring positions some peptides bind to more than one allele, such an overlap is most likely, but not limited to, HLA-A*01 binding peptides also binding to HLA-B*15, HLA-A*03 binding peptides also binding to HLA-A*11, HLA-B*07 binding peptides also binding to HLA-B*35 and HLA-B*51.

HLA-B*44:05 = HLA-B*44:05 (Homo sapiens, UniProt P01889, A223V/A65T/A93T/A95T/D201E/D98Y/E176V/E187L/E204Q/E69K/G107R/H137Y/K202T/L105A/L119I/N104T/N87E/Q56L/Q94N/R106L/R155S/R180D/S101N/S121R/S35A/S48T/T118I/V36M/W191S/Y91S); experiment: MHC binding assay, UV-ligand exchange ELISA; conditions: peptide exchange yield, binding to HLA-B*44:05
HLA-B*08:01 = HLA-B*08:01 (Homo sapiens, UniProt P01889, A93T/A95T/D138N/E176V/E187T/K202T/Q94N/R180D/S35A/V36M/Y33D/Y91F); experiment: MHC binding assay, UV-ligand exchange ELISA; conditions: peptide exchange yield, binding to HLA-B*08:01
HLA-A*02:01 = HLA-A*02:01 (Homo sapiens, UniProt P04439, D140Y/D185E/D98H/E176V/E277Q/G131W/G231S/I119V/I121R/I166T/I218V/L300P/L318F/N151K/N90K/P208A/P217A/Q86G/Q94H/R138H/R169H/T345S); experiment: MHC binding assay, UV-ligand exchange ELISA; conditions: peptide exchange yield, binding to HLA-A*02:01

With “196 (NSENLLVY; listed as Homo sapiens) [compound 196]” the Peptide exchange (HLA-A*01:01) was “+++ (≥50% = +++)” and the “Binders (HLA alleles the peptides according to the invention bind to)” value (from here on “Binders”) [1] was “HLA-A*01:01”.
With “84 (KEFAFLEHSL; listed as Homo sapiens) [compound 84]” the Peptide exchange (HLA-B*44:05) was “++++ (75% = ++++)”.
In the case of “99 (RADEEQASF; listed as Homo sapiens) [compound 99]”, the Peptide exchange (HLA-A*01:01) is reported as “++ (≥20% = ++)” and the “Binders” value [1] is reported as “HLA-A*01:01”.
In the case of “65 (NSDLFYLLL; listed as Homo sapiens) [compound 65]”, the Peptide exchange (HLA-A*01:01) is reported as “++++ (≥75% = ++++)” and the “Binders” value [1] is reported as “HLA-A*01:01”.
With “117 (GEAAAARPV; listed as Homo sapiens) [compound 117]” the Peptide exchange (HLA-B*44:05) was “+++ (50% = +++)”.
“48 (TEMSVSALY; listed as Homo sapiens) [compound 48]” was tested, and the Peptide exchange (HLA-B*44:05) was “++++ (75% = ++++)”.
For “141 (REVAGASAL; listed as Homo sapiens) [compound 141]”, the Peptide exchange (HLA-B*44:05) was “+++ (50% = +++)”.
“216 (ILRTVLPSL; listed as Homo sapiens) [compound 216]” was tested, and the Peptide exchange (HLA-B*08:01) was “+++ (≥50% = +++)” and the “Binders” value [1] was “HLA-B*08:01”.
In the case of “122 (FTQKINSTW; listed as Homo sapiens) [compound 122]”, the Peptide exchange (HLA-A*01:01) is reported as “++ (≥20% = ++)” and the “Binders” value [1] is reported as “HLA-A*01:01”.
In the case of “54 (ASSPVILLL; listed as Homo sapiens) [compound 54]”, the Peptide exchange (HLA-A*01:01) is reported as “++ (≥20% = ++)” and the “Binders” value [1] is reported as “HLA-A*01:01”.
In the case of “39 (RELGVGIAL; listed as Homo sapiens) [compound 39]”, the Peptide exchange (HLA-B*44:05) is reported as “++++ (75% = ++++)”.
In the case of “86 (VANDRLSFL; listed as Homo sapiens) [compound 86]”, the Peptide exchange (HLA-B*08:01) is reported as “+++ (≥50% = +++)” and the “Binders” value [1] is reported as “HLA-B*08:01”.
“135 (SADTAELLL; listed as Homo sapiens) [compound 135]” was tested, and the Peptide exchange (HLA-A*01:01) was “++ (≥20% = ++)” and the “Binders” value [1] was “HLA-A*01:01”.
“171 (NVSFEVSLLY; listed as Homo sapiens) [compound 171]” was tested, and the Peptide exchange (HLA-A*01:01) was “++++ (≥75% = ++++)” and the “Binders” value [1] was “HLA-A*01:01”.
In the case of “131 (TILAKQNVL; listed as Homo sapiens) [compound 131]”, the Peptide exchange (HLA-B*08:01) is reported as “+++ (≥50% = +++)” and the “Binders” value [1] is reported as “HLA-B*08:01”.
For “27 (SQAKQITIW; listed as Homo sapiens) [compound 27]”, the Peptide exchange (HLA-B*44:05) was “++++ (75% = ++++)”.
With “92 (LNFSDVFLY; listed as Homo sapiens) [compound 92]” the Peptide exchange (HLA-A*01:01) was “++ (≥20% = ++)” and the “Binders” value [1] was “HLA-A*01:01”.
In the case of “11 (TEIGTVIKLF; listed as Homo sapiens) [compound 11]”, the Peptide exchange (HLA-B*44:05) is reported as “++++ (75% = ++++)”.
With “26 (ETNTIEFIY; listed as Homo sapiens) [compound 26]” the Peptide exchange (HLA-A*01:01) was “++++ (≥75% = ++++)” and the “Binders” value [1] was “HLA-A*01:01”.
For “32 (TAMTTLMAF; listed as Homo sapiens) [compound 32]”, the Peptide exchange (HLA-B*08:01) was “+++ (≥50% = +++)” and the “Binders” value [1] was “HLA-B*08:01”.
“136 (YSSEIWDLY; listed as Homo sapiens) [compound 136]” was tested, and the Peptide exchange (HLA-A*01:01) was “++++ (≥75% = ++++)” and the “Binders” value [1] was “HLA-A*01:01”.
In the case of “60 (VSPDEVLALW; listed as Homo sapiens) [compound 60]”, the Peptide exchange (HLA-A*01:01) is reported as “++ (≥20% = ++)” and the “Binders” value [1] is reported as “HLA-A*01:01”.
“181 (FDLNIGSAY; listed as Homo sapiens) [compound 181]” was tested, and the Peptide exchange (HLA-B*44:05) was “++++ (75% = ++++)”.
For “147 (VEAPHLPSF; listed as Homo sapiens) [compound 147]”, the Peptide exchange (HLA-B*44:05) was “++++ (75% = ++++)”.
With “68 (TVDKGELLY; listed as Homo sapiens) [compound 68]” the Peptide exchange (HLA-A*01:01) was “++++ (≥75% = ++++)” and the “Binders” value [1] was “HLA-A*01:01”.
In the case of “168 (AEGPDHHSL; listed as Homo sapiens) [compound 168]”, the Peptide exchange (HLA-B*44:05) is reported as “++++ (75% = ++++)”.
With “98 (FSEIFQDFL; listed as Homo sapiens) [compound 98]” the Peptide exchange (HLA-A*01:01) was “+++ (≥50% = +++)” and the “Binders” value [1] was “HLA-A*01:01”.
“139 (EEGRIITKW; listed as Homo sapiens) [compound 139]” was tested, and the Peptide exchange (HLA-B*44:05) was “++++ (75% = ++++)”.
For “71 (LIDSLLLLL; listed as Homo sapiens) [compound 71]”, the Peptide exchange (HLA-A*01:01) was “+++ (≥50% = +++)” and the “Binders” value [1] was “HLA-A*01:01”.
With “95 (YAFRNQTL; listed as Homo sapiens) [compound 95]” the Peptide exchange (HLA-B*08:01) was “+++ (≥50% = +++)” and the “Binders” value [1] was “HLA-B*08:01”.
“83 (EAAPNIMHY; listed as Homo sapiens) [compound 83]” was tested, and the Peptide exchange (HLA-A*01:01) was “++ (≥20% = ++)” and the “Binders” value [1] was “HLA-A*01:01”.
For “23 (AETKQFWSA; listed as Homo sapiens) [compound 23]”, the Peptide exchange (HLA-B*44:05) was “++++ (75% = ++++)”.
For “105 (LVFESVVAA; listed as Homo sapiens) [compound 105]”, the Peptide exchange (HLA-A*02:01) was “++++ (≥75% = ++++)” and the “Binders” value [1] was “HLA-A*02:01”.
For “106 (GLLDAFLRL; listed as Homo sapiens) [compound 106]”, the Peptide exchange (HLA-A*02:01) was “++++ (≥75% = ++++)” and the “Binders” value [1] was “HLA-A*02:01”.
In the case of “5 (METADRPEW; listed as Homo sapiens) [compound 5]”, the Peptide exchange (HLA-B*44:05) is reported as “++++ (75% = ++++)”.
In the case of “73 (NQKGLISL; listed as Homo sapiens) [compound 73]”, the Peptide exchange (HLA-B*08:01) is reported as “+++ (≥50% = +++)” and the “Binders” value [1] is reported as “HLA-B*08:01”.
For “170 (LLDSWNILI; listed as Homo sapiens) [compound 170]”, the Peptide exchange (HLA-A*02:01) was “++++ (≥75% = ++++)” and the “Binders” value [1] was “HLA-A*02:01”.
For “200 (GLLGTLRVL; listed as Homo sapiens) [compound 200]”, the Peptide exchange (HLA-A*02:01) was “++++ (≥75% = ++++)” and the “Binders” value [1] was “HLA-A*02:01”.
“56 (DVDIHKDLY; listed as Homo sapiens) [compound 56]” was tested, and the Peptide exchange (HLA-A*01:01) was “++++ (≥75% = ++++)” and the “Binders” value [1] was “HLA-A*01:01”.
“36 (KEIEAQEAA; listed as Homo sapiens) [compound 36]” was tested, and the Peptide exchange (HLA-B*44:05) was “++++ (75% = ++++)”.
For “30 (SLKSSILFL; listed as Homo sapiens) [compound 30]”, the Peptide exchange (HLA-A*02:01) was “+++ (≥50% = +++)” and the “Binders” value [1] was “HLA-A*02:01”.
“212 (WETRLHNLW; listed as Homo sapiens) [compound 212]” was tested, and the Peptide exchange (HLA-B*44:05) was “++++ (75% = ++++)”.
With “113 (ALGPMAFRV; listed as Homo sapiens) [compound 113]” the Peptide exchange (HLA-A*02:01) was “++++ (≥75% = ++++)” and the “Binders” value [1] was “HLA-A*02:01”.
“58 (REQLDGATL; listed as Homo sapiens) [compound 58]” was tested, and the Peptide exchange (HLA-B*44:05) was “++++ (75% = ++++)”.
For “206 (VEGVHFVQLL; listed as Homo sapiens) [compound 206]”, the Peptide exchange (HLA-B*44:05) was “++++ (75% = ++++)”.
